Measured values as given in patent US20130210034A1, “COMPLEX PHOSPHOPROTEIN ACTIVATION PROFILES” (BECKMAN COULTER, INC., priority 2005, published 2013).
Several values for one entry are separate records, joined by “and”; a condition that tells them apart may be missing. Identical values can stand only once.

Key:
Assay type in all cases: cell-based, human
[1] = test system: pSTAT3; assay: Cytokine-stimulated phosphorylation in AML cell populations (BM or PB of AML patients); conditions: patient AML3 (Example 3)
Method: (§1) To assess the signal transduction response after growth factor simulation, a series comprising two sets of tubes including about 3×10^6 cells/100 μL were incubated at 37° C. for 30 minutes. After this pre-incubation period, tubes with then processes with either a stimulant or inhibitor. […] To examine the effects of protein phosphorylation inhibition, tubes were incubated with an inhibitor cocktail comprising 100 μM/100 μL UO126, 1 μM/100 μL LY294002, and 1 μM/100 μL rapamycin. One unstimulated tube receiving no stimulant or inhibitor was processed to assess basal levels of phospho-protein expression. After stimulation the cells were immediately fixed in 10% formaldehyde solution at 37° C. Pre-labeling with CD13, CD16 and CD64 antibodies was carried out 20 minutes prior to formaldehyde fixation. After fixation, one set of tubes was permeabilized without methanol for pAKT, pERK and pS6 staining and the other for 80% methanol permeabilized for pSTAT3 and pSTAT5 staining. After permeablization, the cells were washed in PBS with 2% BSA and blocked by re-suspended in 75 μL of PBS comprising 25% heat inactivated normal mouse serum, 25% normal rabbit serum. To stain cells with fluorescent conjugated monoclonal antibodies, samples were incubated on ice for 45 minutes in 100 μL of an antibody staining solution including either: 1) CD15-Pacific Orange, CD34-Phycoerythrin-Texas Red, CD117-Phycoerythrin-Cyanin 5.5, CD45-Allophycocyanin-Alexa Fluor 750 (or CD45-Pacific Orange, in which case CD15-Pacific Orange was omitted), pS6-Pacific Blue, pERK-Alexa Fluor 488 and pAKT-Alexa Fluor 647 or 2) CD15-Pacific Orange, CD34-Phycoerythrin-Texas Red, CD117-Phycoerythrin-Cyanin 5.5, CD45-Allophycocyanin-Alexa Fluor 750 or CD45-Pacific Blue, pSTAT3-Alexa Fluor 488 and pSTAT5-Phycoerythrin. The stained cells were washed twice with ice cold PBS containing 2% BSA and centrifuged at 800 g for 6 minutes at 4° C. The supernatant was discarded and cells re-suspended in 250 μL of chilled wash buffer for data acquisition. Stained cells were examined using either GALIOS flow cytometer (Beckman Coulter) or CYAN ADP (Beckman Coulter) equipped with 488 nm, 405 nm and 635 nm lasers to detect the degree of fluorescence. Data were analyzed using FCS Express (De Novo Software, CA) analysis software.
(§2) Specific phosphoprotein expression of pERK, pS6, pAKT, pSTAT5, and pSTAT3 was examined in seven discrete phenotypically defined populations based on 7-color immunophenotyping (FIG. 1). The percent of responding (phosphorprotein positive) cells for each of these populations was determined from individual single parameter histograms based on a fixed integration region set on the inhibitor treated control at about 3% positives.
(§3) Using normal BM signaling profiles of Example 1 as comparison, analysis of 14 AML samples was carried out to identify differences in signaling responses. White blood cells from BM or peripheral blood (PB) samples were obtained from 14 diagnosed AML patients undergoing routine clinical flow cytometry analysis using IRB approved protocols. The AML patients included newly diagnosed AML, AMLs arising in a background of MDS, therapy related AMLs and previously diagnosed AML post therapy. The median age of the patients at diagnosis was 51 years (range: 29-75 years) and represented 5 female and 9 male patients. The median white blood cell was 6.4 million/mL (range: 0.9-106 M/mL) and the BM morphologic blast count was an average of 46% (range: 0%-90%).
(§4) Experiments performed to assess the signal transduction response after growth factor simulation were performed as described for Example 1.

[2] = test system: pSTAT5; assay: as above; conditions: patient AML3 (Example 3)
Method: as §1, §2, §3, §4

[3] = test system: lymphocytes; assay: Phosphoprotein modulation in lymphocytes of normal BM (Example 1, internal negative control); conditions: lymphocytes of normal BM (Examples 1-2)
Method: To assess the signal transduction response after growth factor simulation, a series comprising two sets of tubes including about 3×10^6 cells/100 μL were incubated at 37° C. for 30 minutes. After this pre-incubation period, tubes with then processes with either a stimulant or inhibitor. […] To examine the effects of protein phosphorylation inhibition, tubes were incubated with an inhibitor cocktail comprising 100 μM/100 μL UO126, 1 μM/100 μL LY294002, and 1 μM/100 μL rapamycin. One unstimulated tube receiving no stimulant or inhibitor was processed to assess basal levels of phospho-protein expression. After stimulation the cells were immediately fixed in 10% formaldehyde solution at 37° C. […] Stained cells were examined using either GALIOS flow cytometer (Beckman Coulter) or CYAN ADP (Beckman Coulter) equipped with 488 nm, 405 nm and 635 nm lasers to detect the degree of fluorescence. Data were analyzed using FCS Express (De Novo Software, CA) analysis software.
The tables include the mean and the standard deviation of the percent responding cell population as well as the signal/noise (S/N) ratio for the 5 different phosphoproteins in response to the above-mentioned stimuli in each of these populations. […] Lymphocytes thus served as a de facto internal negative control and their median fluorescence intensity (MFI) was used for normalization of the phosphoprotein measurements.

[4] = test system: pERK; assay: Cytokine-stimulated phosphorylation in immunophenotypically defined cell populations from healthy donor BM (flow cytometry); conditions: healthy donor BM, mean ± SD
Method: (§5) Bone marrow (BM) samples were collected in 7.5 mL Iscove's modified Dulbecco's medium (IMDM) supplemented with 100U penicillin, 0.01 mg/mL streptomycin, and 70 μg/mL heparin sodium salt from 10 patients undergoing hip replacement surgery, who were otherwise healthy. These patients were from a pool of surgery patients, age 49 to 77, and represented […] patients. […] These BM samples were rinsed twice with IMDM to release cells, filtered using a 100 μm Nylon cell strainer to remove marrow particles, and centrifuged for at RT fro 7 minutes at 200 g. The cell pellet was washed twice with sterile IMDM to remove traces of fat and re-suspended in IMDM to a concentration of 3×10^7 cells/mL.
as §1, §2

[5] = test system: pSTAT3; assay: as above; conditions: for pSTAT3 Percent (%) Responding Cells, Mean / pSTAT3 S/N ratio: healthy donor BM, mean ± SD
Method: as §5, §1, §2

[6] = test system: pAKT; assay: as above; conditions: healthy donor BM, mean ± SD
Method: as §5, §1, §2

[7] = test system: pS6; assay: as above; conditions: healthy donor BM, mean ± SD
Method: as §5, §1, §2

[8] = test system: pSTAT5; assay: as above; conditions: for pSTAT5 Percent (%) Responding Cells, Mean / pSTAT5 S/N ratio: healthy donor BM, mean ± SD
Method: as §5, §1, §2

B1: Granulocyte Colony-Stimulating Factor (protein, UniProt P09919 31-207, looked up)
Granulocyte …: TPLGPASSLPQSFLLKCLEQVRKIQGDGAALQEKLVSECATYKLCHPEELVLLGHSLGIPWAPLSSCPSQALQLAGCLSQLHSGLFLYQGLLQALEGISPELGPTLDTLQLDVADFATTIWQQMEELGMAPALQPTQGAMPAFASAFQRRAGGVLVASHLQSFLEVSYRVLRHLAQP
notes: colony-stimulating cytokine
pSTAT3, AML Sample [1]: 7.0 | pSTAT5, AML Sample [2]: 8.3 | Modulation of phosphoprotein epitopes (pERK, pS6, pAKT, pSTAT3 or pSTAT5) in lymphocytes [3]: no response | pERK Percent (%) Responding Cells, Mean ([4]; CD34^+ (CD34^+/CD117^+ cells)): 47.1% and 47.1 ± 12.6% | pERK S/N ratio ([4]; CD34^+ (CD34^+/CD117^+ cells)): 10.2 and 10.2 ± 2.7 | pERK Percent (%) Responding Cells, Mean ([4]; CD117^+ (CD34^−/CD117^+ cells)): 39.2 ± 13.9% | pERK S/N ratio ([4]; CD117^+ (CD34^−/CD117^+ cells)): 6.8 ± 2.5 | pERK Percent (%) Responding Cells, Mean ([4]; G1, immature myeloid cells): 22.9% and 22.9 ± 24.1% | pERK S/N ratio ([4]; G1, immature myeloid cells): 4.2 ± 1.6 | pERK Percent (%) Responding Cells, Mean ([4]; G2, intermediate myeloid cells): 55.2 ± 33.1% | pERK S/N ratio ([4]; G2, intermediate myeloid cells): 5.8 ± 2.4 | pERK Percent (%) Responding Cells, Mean ([4]; G3, mature myeloid cells): 46.0% and 46.0 ± 30.3% | pERK S/N ratio ([4]; G3, mature myeloid cells): 6.2 ± 2.2 | pERK Percent (%) Responding Cells, Mean ([4]; Mono, monocytes): 12.7 ± 8.8% | pERK S/N ratio ([4]; Mono, monocytes): 3.2 ± 1.6 | pSTAT3 Percent (%) Responding Cells, Mean ([5]; CD34^+ (CD34^+/CD117^+ cells)): 77.8 ± 19.1% | pSTAT3 S/N ratio ([5]; CD34^+ (CD34^+/CD117^+ cells)): 9.8 ± 3.0 | pSTAT3 Percent (%) Responding Cells, Mean ([5]; CD117^+ (CD34^−/CD117^+ cells)): 46.2 ± 26.8% | pSTAT3 S/N ratio ([5]; CD117^+ (CD34^−/CD117^+ cells)): 9.9 ± 4.6 | pSTAT3 Percent (%) Responding Cells, Mean ([5]; G1, immature myeloid cells): 91.2 ± 20.4% | pSTAT3 S/N ratio ([5]; G1, immature myeloid cells): 13.3 ± 4.8 | pSTAT3 Percent (%) Responding Cells, Mean ([5]; G2, intermediate myeloid cells): 91.3 ± 19.3% | pSTAT3 S/N ratio ([5]; G2, intermediate myeloid cells): 13.3 ± 5.1 | pSTAT3 Percent (%) Responding Cells, Mean ([5]; G3, mature myeloid cells): 89.2 ± 24.9% | pSTAT3 S/N ratio ([5]; G3, mature myeloid cells): 14.0 ± 5.5 | pSTAT3 Percent (%) Responding Cells, Mean ([5]; Mono, monocytes): 27.8 ± 31.8% | pSTAT3 S/N ratio ([5]; Mono, monocytes): 6.1 ± 2.7 | pSTAT3, Normal Sample ([5]; Table 7 comparison value, matches percent responding CD34^+ cells of Table 5): 77.8 | pAKT Percent (%) Responding Cells, Mean ([6]; CD34^+ (CD34^+/CD117^+ cells)): 22.5% and 22.5 ± 18.4% | pAKT S/N ratio ([6]; CD34^+ (CD34^+/CD117^+ cells)): 6.4 ± 5.9 | pAKT Percent (%) Responding Cells, Mean ([6]; CD117^+ (CD34^−/CD117^+ cells)): 16.6 ± 19.8% | pAKT S/N ratio ([6]; CD117^+ (CD34^−/CD117^+ cells)): 2.7 ± 1.8 | pAKT Percent (%) Responding Cells, Mean ([6]; G1, immature myeloid cells): 5.3 ± 10.9% | pAKT S/N ratio ([6]; G1, immature myeloid cells): 2.5 ± 1.5 | pAKT Percent (%) Responding Cells, Mean ([6]; G2, intermediate myeloid cells): 4.1 ± 3.3% | pAKT S/N ratio ([6]; G2, intermediate myeloid cells): 2.5 ± 1.2 | pAKT Percent (%) Responding Cells, Mean ([6]; G3, mature myeloid cells): 4.4 ± 3.1% | pAKT S/N ratio ([6]; G3, mature myeloid cells): 2.8 ± 1.4 | pAKT Percent (%) Responding Cells, Mean ([6]; Mono, monocytes): 4.1 ± 4.9% | pAKT S/N ratio ([6]; Mono, monocytes): 2.6 ± 1.2 | pS6 Percent (%) Responding Cells, Mean ([7]; CD34^+ (CD34^+/CD117^+ cells)): 52% and 52.0 ± 34.2% | pS6 S/N ratio ([7]; CD34^+ (CD34^+/CD117^+ cells)): 30.7 ± 25.2 | pS6 Percent (%) Responding Cells, Mean ([7]; CD117^+ (CD34^−/CD117^+ cells)): 41.5 ± 26.5% | pS6 S/N ratio ([7]; CD117^+ (CD34^−/CD117^+ cells)): 12.9 ± 10.1 | pS6 Percent (%) Responding Cells, Mean ([7]; G1, immature myeloid cells): 2.7 ± 1.9% | pS6 S/N ratio ([7]; G1, immature myeloid cells): 4.0 ± 2.3 | pS6 Percent (%) Responding Cells, Mean ([7]; G2, intermediate myeloid cells): 2.9 ± 2.3% | pS6 S/N ratio ([7]; G2, intermediate myeloid cells): 3.7 ± 2.1 | pS6 Percent (%) Responding Cells, Mean ([7]; G3, mature myeloid cells): 4.2 ± 3.0% | pS6 S/N ratio ([7]; G3, mature myeloid cells): 4.0 ± 2.4 | pS6 Percent (%) Responding Cells, Mean ([7]; Mono, monocytes): 42.2% and 42.2 ± 30.2% | pS6 S/N ratio ([7]; Mono, monocytes): 17.2 ± 16.8 | pSTAT5 Percent (%) Responding Cells, Mean ([8]; CD34^+ (CD34^+/CD117^+ cells)): 82.6 ± 14.0% | pSTAT5 S/N ratio ([8]; CD34^+ (CD34^+/CD117^+ cells)): 25.2 and 25.2 ± 13.3 | pSTAT5 Percent (%) Responding Cells, Mean ([8]; CD117^+ (CD34^−/CD117^+ cells)): 49.8 ± 25.2% | pSTAT5 S/N ratio ([8]; CD117^+ (CD34^−/CD117^+ cells)): 17.0 ± 11.9 | pSTAT5 Percent (%) Responding Cells, Mean ([8]; G1, immature myeloid cells): 70.9 ± 26.5% | pSTAT5 S/N ratio ([8]; G1, immature myeloid cells): 8.7 and 8.7 ± 1.9 | pSTAT5 Percent (%) Responding Cells, Mean ([8]; G2, intermediate myeloid cells): 71.6 ± 22.0% | pSTAT5 S/N ratio ([8]; G2, intermediate myeloid cells): 9.7 ± 2.3 | pSTAT5 Percent (%) Responding Cells, Mean ([8]; G3, mature myeloid cells): 71.4 ± 17.7% | pSTAT5 S/N ratio ([8]; G3, mature myeloid cells): 11.7 and 11.7 ± 3.0 | pSTAT5 Percent (%) Responding Cells, Mean ([8]; Mono, monocytes): 29.5 ± 19.9% | pSTAT5 S/N ratio ([8]; Mono, monocytes): 5.9 ± 2.0 | pSTAT5, Normal Sample ([8]; Table 7 comparison value, matches percent responding CD34^+ cells of Tables 1-5): 82.6
